Results reported in PMC8939814.

Biological target: CXCR2 (human) (UniProt P25025)
Sequence of UniProt P25025 (P25025 whole entry): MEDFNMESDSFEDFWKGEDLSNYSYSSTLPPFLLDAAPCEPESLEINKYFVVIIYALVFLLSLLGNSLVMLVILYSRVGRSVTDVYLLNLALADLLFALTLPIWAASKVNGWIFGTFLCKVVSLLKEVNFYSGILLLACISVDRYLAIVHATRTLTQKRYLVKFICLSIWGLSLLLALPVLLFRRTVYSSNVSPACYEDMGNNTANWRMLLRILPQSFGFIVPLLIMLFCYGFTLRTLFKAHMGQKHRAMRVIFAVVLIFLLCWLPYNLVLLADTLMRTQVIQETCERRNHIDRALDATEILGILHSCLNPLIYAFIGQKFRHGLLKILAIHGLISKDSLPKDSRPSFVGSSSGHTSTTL

Row | Substance | IP accumulation (G protein signaling, Gqi4myr) in transfected COS-7 cells, agonism at 1 μM (% of the maximal activity of CXCL8) | IP accumulation (G protein signaling, Gqi4myr) in transfected COS-7 cells, agonism at 1 μM (% of the efficacy of CXCL8 on CXCR2)
1 | vCXCL1GT5, the non-ELR CXC chemokine encoded by HCMV UL146 genotype 5 (Davis strain), wild type (1–97) (ligand) | 60 | 
2 | vCXCL1_(GT5 (4–97)), N-terminally truncated vCXCL1GT5 (domain or fragment) |  | 31
3 | vCXCL1_(GT5 (6–97)), N-terminally truncated vCXCL1GT5 (domain or fragment) |  | 29
